This note sets out measurements from paper PMC7589864.

This experiment deals with F-actin of thin filaments in ghost fibers from rabbit psoas muscle (rabbit (endogenous in psoas muscle fibers)) (UniProt P68135). Put plainly: polarized microfluorimetry of ghost muscle fibers; 5-IAF-labelled Tpm incorporated into ghost fibers (2 mg/mL, 2-3 h); sum of the four polarized fluorescence intensities of Tpm-AF, in the presence of S1.

Chain of recombinant control (wild-type) human tropomyosin Tpm2.2 (natural protein) (P07951 whole entry): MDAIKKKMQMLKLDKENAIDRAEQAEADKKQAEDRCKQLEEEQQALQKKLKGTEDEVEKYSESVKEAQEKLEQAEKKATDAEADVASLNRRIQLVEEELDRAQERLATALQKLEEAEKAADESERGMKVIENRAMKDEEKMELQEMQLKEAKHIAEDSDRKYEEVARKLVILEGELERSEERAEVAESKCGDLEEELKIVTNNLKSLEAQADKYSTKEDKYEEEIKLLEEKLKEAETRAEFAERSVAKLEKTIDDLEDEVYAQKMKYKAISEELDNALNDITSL

On to “recombinant control (wild-type) human tropomyosin Tpm2.2 (natural protein)”, for which the sum of fluorescence intensities for Tpm-AF (Isum) in ghost fibers was 1030.
For the substance “recombinant mutant human tropomyosin Tpm2.2 with the Gln147Pro substitution (natural protein)”, the sum of fluorescence intensities for Tpm-AF (Isum) in ghost fibers came to 978.
